Source: patent US20100285005A1 (Eli Lilly, published 2010)
Changes are numbered by the printed parent chain.

B1: Antibody I (antibody, human IgG4 S228P, kappa, F234A L235A, V domains shown)
VH: EVQLVESGGGLVQPGGSLRLSCAASGFTSTDYYFSWVRQAPGKGLEWVGFIRTKSKGYTTEYSGSVKGRFTISRDDSKNSLYLQMNSLKTEDTAVYYCAREPITTDPRDYWGQGTLVTVSS
VL: DIVMTQSPDSLAVSLGERATINCKSSQSLFNSRTRKKYLAWYQQKPGQPPKLLIYWASKRKSGVPDRFSGSGSGTDFTLTISSLQAEDVAVYYCKQSRFLRAFGQGTKLEIKR
B2: Antibody II (antibody, human IgG4 S228P, kappa, F234A L235A, V domains shown)
VH: B1 VH with T53S
VL: B1 VL
B3: Antibody IV (antibody, human IgG4 S228P, kappa, F234A L235A, V domains shown)
VH: B1 VH with T53N, S55R
VL: B1 VL
B4: Antibody V (antibody, human IgG4 S228P, kappa, F234A L235A, V domains shown)
VH: B1 VH with T53H
VL: B1 VL
B5: Antibody III (antibody, human IgG4 S228P, kappa, F234A L235A, V domains shown)
VH: B1 VH with T53Y
VL: B1 VL
notes: Human engineered anti-CXCR4 antibody; also called the antibody III

Each binder was assayed against T1, human CXCR4, endogenous on human cells (CCRF-CEM leukemia cells; U937 histiocytic lymphoma cells) (human, UniProt P61073 1-352) (assay: cell-based or functional assay).
T1 sequence (P61073 whole entry): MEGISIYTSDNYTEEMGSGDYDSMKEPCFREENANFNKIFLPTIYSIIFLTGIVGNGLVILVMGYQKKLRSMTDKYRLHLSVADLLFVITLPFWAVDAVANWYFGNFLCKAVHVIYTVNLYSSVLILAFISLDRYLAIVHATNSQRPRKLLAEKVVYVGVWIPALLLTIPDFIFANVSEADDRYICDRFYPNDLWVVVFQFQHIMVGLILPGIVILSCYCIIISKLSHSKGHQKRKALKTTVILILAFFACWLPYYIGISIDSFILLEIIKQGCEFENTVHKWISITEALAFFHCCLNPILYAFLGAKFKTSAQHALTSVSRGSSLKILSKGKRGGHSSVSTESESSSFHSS
With B1 the “IC50, chemotaxis assay (SDF-1α-driven migration of U937 cells)” value (“IC50, chemotaxis assay” for short) was at most 30 nM.
In the case of B2, the “IC50, chemotaxis assay” value is reported as at most 30 nM.
With B3 the “IC50, chemotaxis assay” value was at most 30 nM.
In the case of B4, the “IC50, chemotaxis assay” value is reported as at most 30 nM.

What follows are binders tested against T1, human CXCR4, endogenous on human cells … (assay: inhibition of 125I-SDF-1α binding to CCRF-CEM cells expressing endogenous CXCR4 (SPA); antibody III's own average value).
Protocol: SDF-1 binding to CXCR4 is the first step in activating the CXCR4 intracellular signaling pathway. To determine if an antibody can block the interaction of SDF-1 and CXCR4, human leukemia CCRF-CEM cells expressing endogenous CXCR4 are used in an ¹²⁵I-labeled SDF-1α binding assay. The assay is performed in a 96-well U-bottom, non-treated polystyrene plate. The binding assay buffer is prepared with RPMI 1640 medium containing 10 mM N-2-hydroxyethylpiperazine-N′-2-ethanesulfonic acid (HEPES), pH 7.5, and 0.2% bovine serum albumin (BSA). Briefly, 200 μL reaction mixtures containing 300 pM ligand (60 pM ¹²⁵I-SDF-1α and 240 pM cold SDF-1α), different concentrations of the test antibody in assay buffer, 100,000 human CCRF-CEM cells, and 0.5 mg scintillation proximity assay (SPA) beads are incubated at room temperature for 2 hours. Plates are then counted in a liquid scintillation and luminescence counter in SPA mode. CXCR4 antagonists decrease the bound radioactivity in this assay in a dose-dependent manner. The inhibitory potency (IC₅₀) of a test antibody is calculated using GraphPad Prism software, based on the dose-dependent decrease of bound radioactivity.
B5 gave an IC50 of 0.45 nM.

Each binder was assayed against human CXCR4 receptor with a C-terminal linear C9 peptide tag (human) (assay: SPR (Biacore 2000), C9-tagged CXCR4 captured by 1D4 antibody, antibody injected, 4 °C).
In the case of B5, the Kd is reported as 1.54 nM, the koff is reported as 0.00172 s⁻¹ and the kon is reported as 1.12e+06 M⁻¹ s⁻¹.
B1 was tested, and the Kd was 0.68 nM, the koff was 0.00161 s⁻¹ and the kon was 2.36e+06 M⁻¹ s⁻¹.
B2 showed a Kd of 0.72 nM, a koff of 0.00181 s⁻¹ and a kon of 2.5e+06 M⁻¹ s⁻¹.
B3 showed a Kd of 5.14 nM, a koff of 0.00398 s⁻¹ and a kon of 774000 M⁻¹ s⁻¹.
B4 was tested, and the Kd was 0.88 nM, the koff was 0.00168 s⁻¹ and the kon was 1.91e+06 M⁻¹ s⁻¹.
